Measured values from PMC2164975.

Molecular target: GST-QM fusion protein, full-length QM (human) (UniProt P27635)
Test: pull-down

normal full-length PS1, in vitro translated and radiolabeled with [35S]methionine (from UniProt P49768 1-467) (natural protein)
ratio between the input and the pulled-down amounts: 95%
